Laboratory results published in patent publication US10925971B2, “Methods of treating PRLR positive breast cancer” (Regeneron Pharmaceuticals, Inc., priority 2016, dated 2021).

What was measured:
[1] = molecular target: T1, human PRLR on HEK293/hPRLR cells (Homo sapiens, UniProt P16471); assay: FACS cell surface binding
T1 construct: HA; expressed in transfected cells; host or cells: HEK293
T1 sequence (P16471 25-622): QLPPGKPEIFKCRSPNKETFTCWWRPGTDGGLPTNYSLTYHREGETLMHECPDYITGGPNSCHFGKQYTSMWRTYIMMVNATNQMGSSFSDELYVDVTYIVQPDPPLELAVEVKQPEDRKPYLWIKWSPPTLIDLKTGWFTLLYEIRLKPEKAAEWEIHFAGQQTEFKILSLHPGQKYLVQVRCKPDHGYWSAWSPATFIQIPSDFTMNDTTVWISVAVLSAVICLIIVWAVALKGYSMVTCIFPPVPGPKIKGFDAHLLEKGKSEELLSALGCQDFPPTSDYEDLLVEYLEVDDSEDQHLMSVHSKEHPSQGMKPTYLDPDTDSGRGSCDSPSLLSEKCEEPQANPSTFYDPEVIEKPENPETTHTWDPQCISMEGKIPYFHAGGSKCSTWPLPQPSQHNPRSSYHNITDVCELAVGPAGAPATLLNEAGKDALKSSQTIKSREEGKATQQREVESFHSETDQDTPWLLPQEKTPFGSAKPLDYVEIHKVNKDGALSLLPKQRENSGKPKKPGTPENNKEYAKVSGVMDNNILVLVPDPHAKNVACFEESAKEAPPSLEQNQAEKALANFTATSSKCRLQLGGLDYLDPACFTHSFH
How it was run: (§1)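 Stable HEK293 transfectants carrying HA-tagged PRLR (human, Macaca fascicularis, mouse) were selected ≥2 weeks in G418. Cells were exposed to 10 μg/ml test antibody on ice for 30 min, washed, and labelled with PE anti-human antibody. Fluorescence was reported as fold change versus isotype.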

[2] = molecular target: T2, monkey PRLR on HEK293/mfPRLR cells (Macaca fascicularis, UniProt A0A2K5WXK1); assay: FACS cell surface binding
T2 construct: HA; expressed in transfected cells; host or cells: HEK293
T2 sequence (A0A2K5WXK1 25-619): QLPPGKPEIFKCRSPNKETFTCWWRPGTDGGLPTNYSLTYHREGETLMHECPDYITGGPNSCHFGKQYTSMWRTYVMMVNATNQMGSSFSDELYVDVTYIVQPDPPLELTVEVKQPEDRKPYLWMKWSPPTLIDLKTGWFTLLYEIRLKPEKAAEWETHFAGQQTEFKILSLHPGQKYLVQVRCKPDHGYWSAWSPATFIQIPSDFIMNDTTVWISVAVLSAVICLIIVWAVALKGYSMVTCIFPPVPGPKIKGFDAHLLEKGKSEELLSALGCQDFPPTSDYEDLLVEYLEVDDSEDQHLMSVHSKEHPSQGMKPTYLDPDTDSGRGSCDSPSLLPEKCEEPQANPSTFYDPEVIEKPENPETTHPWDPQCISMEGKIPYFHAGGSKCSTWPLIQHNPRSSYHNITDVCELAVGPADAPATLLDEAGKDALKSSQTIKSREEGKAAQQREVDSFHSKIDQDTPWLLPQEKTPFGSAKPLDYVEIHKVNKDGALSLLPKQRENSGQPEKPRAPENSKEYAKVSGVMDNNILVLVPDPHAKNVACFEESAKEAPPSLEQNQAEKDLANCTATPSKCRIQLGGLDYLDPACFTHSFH
How it was run: as §1

[3] = molecular target: T3, mouse PRLR on HEK293/mPRLR cells (Mus musculus, UniProt Q08501); assay: FACS cell surface binding
T3 construct: HA; expressed in transfected cells; host or cells: HEK293
T3 sequence (Q08501 20-608): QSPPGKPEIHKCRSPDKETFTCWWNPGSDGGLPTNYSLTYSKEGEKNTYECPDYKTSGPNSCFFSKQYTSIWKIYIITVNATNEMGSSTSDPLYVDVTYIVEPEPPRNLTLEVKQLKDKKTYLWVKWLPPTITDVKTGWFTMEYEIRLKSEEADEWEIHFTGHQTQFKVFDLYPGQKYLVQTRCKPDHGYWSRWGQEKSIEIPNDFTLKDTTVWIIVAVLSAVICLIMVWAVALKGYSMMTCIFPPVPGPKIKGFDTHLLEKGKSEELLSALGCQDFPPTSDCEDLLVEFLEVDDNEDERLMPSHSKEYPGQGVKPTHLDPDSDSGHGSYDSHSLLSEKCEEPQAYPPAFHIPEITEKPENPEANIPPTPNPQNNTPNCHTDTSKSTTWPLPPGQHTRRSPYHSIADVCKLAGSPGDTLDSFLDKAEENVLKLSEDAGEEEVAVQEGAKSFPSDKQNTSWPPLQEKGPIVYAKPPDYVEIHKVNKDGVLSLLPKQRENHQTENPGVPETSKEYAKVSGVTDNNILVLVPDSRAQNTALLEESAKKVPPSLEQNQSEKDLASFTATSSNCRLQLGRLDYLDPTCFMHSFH
How it was run: as §1

[4] = molecular target: T4, dimeric human PRLR (hPRLR.mFc; SEQ ID NO:402) (Homo sapiens, UniProt P16471); assay: Surface plasmon resonance (Biacore T200), antibody-capture format; format: binding; details: analyte hPRLR.mFc
T4 construct: dimeric (hPRLR.mFc)
How it was run: (§2)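 Antibodies (human IgG1 Fc) captured on an anti-human Fc sensor surface; soluble monomeric (.mmh) or dimeric (.mFc) PRLR injected as analyte. ka and kd obtained by fitting to a 1:1 binding model.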

[5] = molecular target: T5, monomeric human PRLR (hPRLR.mmh; SEQ ID NO:401) (Homo sapiens, UniProt P16471); assay: as above; format: binding; details: analyte hPRLR.mmh
T5 construct: soluble monomeric (hPRLR.mmh); mmh (myc-myc-hexahistidine) (C)
How it was run: as §2

[6] = system: Macaca fascicularis PRLR (mfPRLR.mmh; SEQ ID NO:403); assay: as above; format: binding; details: analyte mfPRLR.mmh
How it was run: as §2

[7] = molecular target: T6, native PRLR expressing T47D cells (Homo sapiens, UniProt P16471); assay: FACS cell surface binding
T6 construct: a native PRLR expressing cell line (T47D); endogenous in cells; host or cells: T47D
T6 sequence (P16471 25-622): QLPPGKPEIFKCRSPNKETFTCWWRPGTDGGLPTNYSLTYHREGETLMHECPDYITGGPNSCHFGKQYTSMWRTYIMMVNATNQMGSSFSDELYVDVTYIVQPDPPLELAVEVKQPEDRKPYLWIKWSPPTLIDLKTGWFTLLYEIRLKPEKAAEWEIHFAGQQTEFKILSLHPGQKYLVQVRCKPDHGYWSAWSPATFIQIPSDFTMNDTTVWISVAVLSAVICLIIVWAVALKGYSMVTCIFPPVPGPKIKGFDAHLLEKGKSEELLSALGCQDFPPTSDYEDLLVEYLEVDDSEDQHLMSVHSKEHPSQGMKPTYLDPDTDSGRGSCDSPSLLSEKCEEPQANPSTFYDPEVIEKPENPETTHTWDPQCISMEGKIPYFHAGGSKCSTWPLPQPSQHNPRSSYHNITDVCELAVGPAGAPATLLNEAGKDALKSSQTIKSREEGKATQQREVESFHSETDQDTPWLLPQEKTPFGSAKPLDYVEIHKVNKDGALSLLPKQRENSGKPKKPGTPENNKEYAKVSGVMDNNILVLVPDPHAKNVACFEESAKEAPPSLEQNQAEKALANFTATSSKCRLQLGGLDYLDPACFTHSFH
How it was run: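 Binding expressed as mean fluorescence fold change above isotype background, measured by FACS after 30 min on ice with 10 μg/ml antibody and PE-conjugated anti-human detection. T47D, which natively expresses PRLR, tested with engineered HEK293/hPRLR and non-expressing HEK293 cells.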

HEK293 parental cells = assay: FACS cell surface binding; parameters: species or system human
How it was run: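 HEK293 cells stably transfected with HA-tagged human, cynomolgus or mouse PRLR (G418-selected), or parental HEK293, were stained with 10 μg/ml antibody for 30 min on ice. Binding was then detected with 10 μg/ml PE anti-human secondary for 30 min on ice, and MFI was expressed as fold over isotype control.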

T5 sequence (P16471 with tags, fused parts or gaps): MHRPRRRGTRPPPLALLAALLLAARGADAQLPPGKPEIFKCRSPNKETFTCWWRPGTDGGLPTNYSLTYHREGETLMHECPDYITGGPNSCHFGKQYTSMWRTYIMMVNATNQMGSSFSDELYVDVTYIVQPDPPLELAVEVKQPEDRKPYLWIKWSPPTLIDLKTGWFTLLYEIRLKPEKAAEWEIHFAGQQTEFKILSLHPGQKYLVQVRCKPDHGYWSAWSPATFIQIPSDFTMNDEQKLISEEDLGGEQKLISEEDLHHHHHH
Sequence of Macaca fascicularis PRLR (mfPRLR.mmh; SEQ ID NO:403) (as listed by the source): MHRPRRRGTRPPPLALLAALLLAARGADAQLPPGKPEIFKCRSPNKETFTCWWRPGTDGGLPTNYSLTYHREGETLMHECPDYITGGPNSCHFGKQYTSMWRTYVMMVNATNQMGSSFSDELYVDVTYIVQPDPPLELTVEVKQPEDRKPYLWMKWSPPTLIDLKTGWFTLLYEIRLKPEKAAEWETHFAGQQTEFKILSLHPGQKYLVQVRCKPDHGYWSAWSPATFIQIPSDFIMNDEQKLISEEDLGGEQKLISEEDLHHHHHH
T4 sequence (P16471 with tags, fused parts or gaps): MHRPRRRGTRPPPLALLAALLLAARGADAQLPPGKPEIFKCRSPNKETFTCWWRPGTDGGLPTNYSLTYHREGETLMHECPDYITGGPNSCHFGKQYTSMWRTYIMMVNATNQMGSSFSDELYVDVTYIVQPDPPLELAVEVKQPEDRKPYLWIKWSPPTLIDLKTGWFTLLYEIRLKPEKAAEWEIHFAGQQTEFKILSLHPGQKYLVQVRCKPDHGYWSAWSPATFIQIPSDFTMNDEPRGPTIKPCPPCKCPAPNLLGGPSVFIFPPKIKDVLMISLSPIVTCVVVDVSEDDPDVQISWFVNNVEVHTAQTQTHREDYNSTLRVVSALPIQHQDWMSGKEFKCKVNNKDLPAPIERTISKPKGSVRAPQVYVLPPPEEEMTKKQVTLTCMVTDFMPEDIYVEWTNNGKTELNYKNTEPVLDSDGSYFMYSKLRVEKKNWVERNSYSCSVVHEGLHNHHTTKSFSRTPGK

B1: H1H6793P: fully human anti-PRLR antibody, human IgG1 Fc; HCVR/LCVR SEQ ID NOs 146/154 (antibody, V domains shown)
VH: EVQLVESGGGLVQPGGSLRLSCAASGFSFSIYAMSWFRQAPGKGLEWVSAINGRGDGTHYADSVKGRFTISRDNSKTTLYLQMSSLRAEDTAVYYCAKPVMSTNGFDIWGQGTMVTVSS
VL: DIQMTQSPSTLSASVGDRVTITCRASQSISSWLAWYQLKPGKAPKLLIYKASNLESGVPSRFSGSGSGTEFTLTISSLQPDDFATYYCQQYNIYWTFGQGTKVEIK
[1]
  FACS Cell Binding: 2 Fold Above Background
[2]
  FACS Cell Binding: 32 Fold Above Background
[3]
  FACS Cell Binding: 2 Fold Above Background
[4]; 25° C.
  ka: 229000 M/s
  kd: 7.57e-05 s⁻¹
[4]; 37° C.
  ka: 410000 M/s
  kd: 0.000142 s⁻¹
[5]; 25° C.
  ka: 235000 M/s
  kd: 0.000332 s⁻¹
[5]; 37° C.
  ka: 339000 M/s
  kd: 0.00102 s⁻¹
[6]; 25° C.
  ka: 177000 M/s
  kd: 0.000393 s⁻¹
[6]; 37° C.
  ka: 233000 M/s
  kd: 0.00107 s⁻¹
[7]
  FACS Cell Binding: 43 Fold Above Background
HEK293 parental cells
  FACS Cell Binding: 2 Fold Above Background

B2: H1H6790P: fully human anti-PRLR antibody, human IgG1 Fc; HCVR/LCVR SEQ ID NOs 114/122 (antibody, V domains shown)
VH: EVQLVESGGGLVQPGGSLRLSCAASGFTFSSYAMTWVRQAPGKGLEWVSAITGSVGNTYYADSVKGRFTISRDNSKNTLYLQMNSLGAEDTAEYYCAKGAGMTTNWYLDLWGRGTLVTVSS
VL: DIVMTQSPDSLAVSLGARATINCKSSQSVLYSSNNQNYLTWYQQKPGQPPKLLIKWASTRESGVPDRFSGSGSGTDFTLTISSLQAEDVAVYYCQQYASSPYTFGQGTKLEIK
[1]
  FACS Cell Binding: 37 Fold Above Background
[2]
  FACS Cell Binding: 24 Fold Above Background
[3]
  FACS Cell Binding: 1 Fold Above Background
[4]; 25° C.
  ka: 542000 M/s
  kd: 0.000104 s⁻¹
[4]; 37° C.
  ka: 646000 M/s
  kd: 0.000198 s⁻¹
[5]; 25° C.
  ka: 565000 M/s
  kd: 0.000799 s⁻¹
[5]; 37° C.
  ka: 940000 M/s
  kd: 0.00329 s⁻¹
[6]; 25° C.
  ka: 389000 M/s
  kd: 0.000793 s⁻¹
[6]; 37° C.
  ka: 615000 M/s
  kd: 0.00321 s⁻¹
[7]
  FACS Cell Binding: 34 Fold Above Background
HEK293 parental cells
  FACS Cell Binding: 1 Fold Above Background

B3: H1H6785P: fully human anti-PRLR antibody, human IgG1 Fc; HCVR/LCVR SEQ ID NOs 98/106 (antibody, V domains shown)
VH: EVQLVESGGGLVQPGGSLRLSCAASGFTFSSYEMNWVRQAPGKGLEWISYISSRGGTIYYADSIKGRFTIYRDNARNSLYLQMNSLRAEDTAIYYCARLSGVDIFDIWGQGTMVTVSS
VL: DIQMTQSPSSLSASVGDRVTITCRASQGISNYLAWYQQKPGKVPKLLIYFASTLQSGVPSRFSGGGSGTDFTLTISSLQPEDVATYYCQRYNSAPLTFGGGTKVEIK
[1]
  FACS Cell Binding: 37 Fold Above Background
[2]
  FACS Cell Binding: 26 Fold Above Background
[3]
  FACS Cell Binding: 2 Fold Above Background
[4]; 25° C.
  ka: 263000 M/s
  kd: 6.07e-05 s⁻¹
[4]; 37° C.
  ka: 456000 M/s
  kd: 0.000117 s⁻¹
[5]; 25° C.
  ka: 301000 M/s
  kd: 0.000171 s⁻¹
[5]; 37° C.
  ka: 426000 M/s
  kd: 0.000484 s⁻¹
[6]; 25° C.
  ka: 227000 M/s
  kd: 0.000167 s⁻¹
[6]; 37° C.
  ka: 297000 M/s
  kd: 0.00045 s⁻¹
[7]
  FACS Cell Binding: 40 Fold Above Background
HEK293 parental cells
  FACS Cell Binding: 1 Fold Above Background

B4: H1H6792P: fully human anti-PRLR antibody, human IgG1 Fc; HCVR/LCVR SEQ ID NOs 130/138 (antibody, V domains shown)
VH: EVQLVESGGGLVQPGRSLRLSCAASGFTLDDHAVHWVRQAPGKGLEWVSGISWNSVYIDYADSVKGRFTIFRDNAKNSLYLQMNSLRAEDTAFYYCARDIEGARDYWGQGTLVTVSS
VL: DIQMTQSPSSLSASVGDRVTITCRASQGIRNDLGWYQQKPGKAPKRLIYAASSLQSGVPSRFSGSGYGTEFTLTISSLQPEDFAPYYCLQHNSYPLTFGGGTKVEIK
[1]
  FACS Cell Binding: 37 Fold Above Background
[2]
  FACS Cell Binding: 28 Fold Above Background
[3]
  FACS Cell Binding: 3 Fold Above Background
[4]; 25° C.
  ka: 303000 M/s
  kd: 9.48e-05 s⁻¹
[4]; 37° C.
  ka: 499000 M/s
  kd: 0.000176 s⁻¹
[5]; 25° C.
  ka: 324000 M/s
  kd: 0.000794 s⁻¹
[5]; 37° C.
  ka: 435000 M/s
  kd: 0.00229 s⁻¹
[6]; 25° C.
  ka: 236000 M/s
  kd: 0.000983 s⁻¹
[6]; 37° C.
  ka: 305000 M/s
  kd: 0.00286 s⁻¹
[7]
  FACS Cell Binding: 37 Fold Above Background
HEK293 parental cells
  FACS Cell Binding: 1 Fold Above Background
